Assay results taken from article doi:10.1101/2024.12.13.628329 (bioRxiv, 2024).

Target: the molecule itself
Experiment: SEC

B1: TNFR1^R347A death domain (domain or fragment, UniProt P19438 356-441, looked up)
chain: PATLYAVVENVPPLRWKEFVARLGLSDHEIDRLELQNGRCLREAQYSMLATWRRRTPRREATLELLGRVLRDMDLLGCLEDIEEAL
In the case of B1, the “stoichiometry N” value is reported as 2.
